Here are results for 30 sequences from the nanobody polyreactivity screen of Harvey et al. (2022).

The data set can be described thus: yeast display, Sf9 membrane polyspecificity reagent, FACS + sequencing; frameworks hold sequencing errors. In short, it runs like this:
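In a synthetic yeast display library (Saccharomyces cerevisiae BJ5465), nanobody expression was induced with galactose for 36–48 hours. FACS gates were set low and high (top ~1%) using anti-HA fluorescence for expression and streptavidin fluorescence for binding of the Sf9 membrane reagent. Each polyreactivity label is drawn from the gate of origin.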
Regarding “QVQLVESGGGLVQAGGSLRLSCAASGRIFYDYAMGWYRQAPGKQREFVAAIRWRGGSTYYADSVKGRFTISRDNAMNTVYLQMNSLKPEDTAVYYCATKSYYKFGYWGQGSQVTVSS”, the “polyreactivity (PSR sort gate)” value is listed as “high polyreactivity”.

For the sequence “QVQLVDSGGGLVQAGGSLRLSCAASGRTVRYYTMGWYRQAPGKERELVAAISNAASTNYADSVKGRFTISRDNAKNTVYLQMNSLKPEDTAVYYCNAYLHYRAGHPRGYHNRYYYWGQGTQVTVSS”, the “polyreactivity (PSR sort gate)” value was “high polyreactivity”.

Consider “QVQLVESGGGLVQAGGSLRLSCAASGRNFSNYAMGWYRQAPGKERELVAAIRATGTTTYYADSVKGRFTISRDNAKNTVYLQMNSLKPDDTAVYYCAARGSRYRSSGYDYWGQGTQVTVSS”, for which the “polyreactivity (PSR sort gate)” value is “high polyreactivity”.

For “QVQLVESGGGLVQAGGSLRLSCAASGSIFSYYAMGWYRQAPGKERELFAVINSGGRTNYADSVKGRFTISRDNAKNTVYLQMNSLKPEDTAVYYCAAQGYFVDRAGRYYRGDYWGQGTQVTVSS”, the “polyreactivity (PSR sort gate)” value is “high polyreactivity”.

As for “QVQLVDSGGGLVQAGGSLRLSCAASGSTFLYYSMGWYTQAPGKERELVAVISWSGVSTYYADSVKGRFTISRDNAKNSVYLQMNSLKPEDTAVYYCNTGNHYIRTYGYWGQGTQVTVSW”, the “polyreactivity (PSR sort gate)” value is listed as “low polyreactivity”.

As to “QVQLVESGGGLVQAGGSLRLSCAASGLTFRFYTMGWYRQAPGKERELVAAISTSGGSTYYADSVKGRFTISRDNAKNTVYLQMNSLKPEDTAVYYCNAQVWFYYFQSGYDYWGQGTQVTVSS”, the “polyreactivity (PSR sort gate)” value was “low polyreactivity”.

With “QVQLVESGGGLVQAGVSLRLSCAASGTFFGYAMGWYRQAPGKERELVASITSGDSTNYADSVKGRFTISRDNAKKTVYLQMNSLKPEDTAVYYCNADRFADYDYWGQGTQVTVSS”, the “polyreactivity (PSR sort gate)” value is listed as “low polyreactivity”.

For “QVQLVESGGGLVQAGGSLRLSCAASGGTFYPYAMGWYREAPGKEWELVAAISTSGGITYYADSVKGRFTISRDNAKNTVYLQMNSLKPEDTAVYYCAKVLRDYYTYYRWQYREFGYWGQGTQVTVSS”, the “polyreactivity (PSR sort gate)” value is recorded as “high polyreactivity”.

Consider “QVQLVESGGGLVQAGGSLRLSCAASGRIFNYYAMGWYRQAPGKERELVAAISARGGSTYYADSVKGRFTISRDNAKNTVYLQMNSLKPEDTAVYYCAVSSGSYGYGYWGQGTQVTVSS”, for which the “polyreactivity (PSR sort gate)” value is “high polyreactivity”.

As to “QVRLVESGGGLVQAGGRLRLSCAASGRIFSSYSMGWYRQAPGKERELVASISWSGVRTRYADSVKGRFTISRDNAKNTVYLQLNSLKPEDTAVYYCAAVVPYYYRSPSNHMGYWGQGTQVTVSS”, the “polyreactivity (PSR sort gate)” value is recorded as “high polyreactivity”.

For the sequence “QVQLVESGGGLVQAGGSLRLSCAASGFTFVYNAMGWYRQAPGKERELVAAISSRGGSTFYADSVKGRFTISRDNAKNTVYLQMNSLKPEDTAVYYCNAVPGWTYDYWGQGTQVTVSS”, the “polyreactivity (PSR sort gate)” value was “high polyreactivity”.

“QVQLLESGGGLVQAGGSLRLSCAASGFTFWYYAMVWYRQAPGKERELVAAITRGGSTNYADSVKGRFTISRDNAKNTVYLQMNSLKPEDTAVYYCAATIYDYNRAGKYYYWGQGTQVTVSS”: the “polyreactivity (PSR sort gate)” value is recorded as “high polyreactivity”.

Consider “QVQLVESGGGLVQAGGSLRLICAASGSTFNGNDRGWYRQAPGKERELVATISDGGRTYYADSVKGRFTISRDNAKITVYLQMNSLKPEDTAVYYCAAPVYVPRAWFYYWGQGTQVTVSS”, for which the “polyreactivity (PSR sort gate)” value is “low polyreactivity”.

Consider “QVQLVESGGGLVQAGGSLRLSCAASGRTFRPYAMGWYRPAPGKERELVAAISYRGGITNYADSVKGRFTISRDNAKNTVYLKMNSLKPEDTAVYYCNRYAIWVSRYSDLDYWGQGTEVTVSS”, for which the “polyreactivity (PSR sort gate)” value is “low polyreactivity”.

For the sequence “QVQLVESGGGLVQAGGSLRLSCAASGSTFYPYAMGWYRQAPGKEREFVAGISRSGGTTYYADSLKGRFTISRDNAKNTVYLQMNSLKPEDTAVYYCAVQIPYVYWSYDYWGQGTEVTVSS”, the “polyreactivity (PSR sort gate)” value was “low polyreactivity”.

Take “QVQLVESGGGLVQAGGSLRLSCAASGSIFEQNVMGWYRQAPGKERELVAAITRGGSTNYADSVKGRFTISRDNAKNTVYLQMNSLKPEDTAVYYCAKRRWLGPSTLDYWGQGTQVTVSS”: the “polyreactivity (PSR sort gate)” value is recorded as “low polyreactivity”.

As to “QVQLVESAAGLVQAGGSLRLRCAASGRIFSDYAMGWYRQAPGKERELVATITSGDSTNYADSVKGRFTISGDNAKNTDYLQMNSLKPEDTAVYYCNADRFADYDYWGQGTQLTVSS”, the “polyreactivity (PSR sort gate)” value is reported as “low polyreactivity”.

Turning to “QVQLVESGGGLVQAGGSLRLSCAASGRPFNRNAMGWYRTAPGKERELVASITSRGGSTYYADSVKGRFTISRDNAKNTVYLQMNSLKTEDTAVYYCAGYTRNGDYDYWGQGTQVTFSS”, the “polyreactivity (PSR sort gate)” value was “high polyreactivity”.

Regarding “QVQLVESGGGLVQAGGSLRLSCAASGRIFHGNAMGWYRQAPGKERELVAAISRSGSRTYYADSVKGRFTISRDNAKNTVYLQMNSLKPEDTAVYYCAAVTFSYQDYYWGQVTQVTVSS”, the “polyreactivity (PSR sort gate)” value was “high polyreactivity”.

With “QVQLVESGGGLVQAGGSLRLSCAASGRTFNIYAMGWYRQEPGKERELVAAITNNGGRTYYADSVKGRFTISRDNAKNTVYLQMNSLKPEDTAVYYCAAVSGRSYDKYYYWGQGTQVTVSS”, the “polyreactivity (PSR sort gate)” value is listed as “high polyreactivity”.

As to “QVQLVESGGGLVQAGGSLRLSCAASGRIFDIYGMGWYRQAPGKERELLAAITWRGGSTYYADSVKGRFTISRDNAKNTVYLQMKSLNPEDTAVYYCNARKRGARFILGYDYWGQGTQVTVSS”, the “polyreactivity (PSR sort gate)” value was “low polyreactivity”.

Turning to “QVQLVDSGVGLVQAGGSLRLTCAASGITFYYYAMGWYRQAPGKERELVARISSGGSTNYSDSVNGRFTISRDNAKNTVYLQMISLKPEDTAVYYCAAVRHRAMDYWGQGTQVTVSS”, the “polyreactivity (PSR sort gate)” value was “low polyreactivity”.

With “QVQLVESGGGLVQAGGSLRLSCAASGGTFNRNAMGWYRQAPGKERELVAAISSSGGRTYYADSVKGRFTISRDNAKNTVYLQMNSLKPEDTAVYYCAAGRKGHGGAYDSWAQGTQVTVSS”, the “polyreactivity (PSR sort gate)” value is recorded as “high polyreactivity”.

With “QVQLVESGGGLVQAGGSLRLSCAASGRTFGTNAMGWYRPAPGKERELVAAISWRGTSTYYADSVKGRFTISRDNAKNTVYLQMNILKPEVTAVYYCAADFSYTSYATRYQGDYWGQGTQVTVSS”, the “polyreactivity (PSR sort gate)” value was “low polyreactivity”.

Turning to “QDQLVESGGGLVQAGGSLRLSCAASGRIFGYYTAMGWYRQTPAKEREMVASITKSGGSTYYSDSVKGRFTITRDNAKNTVYLQKNCLKPEDTAVYYCAAAFNRYGTTSYWYRHYYWGQGTQVTVSS”, the “polyreactivity (PSR sort gate)” value is recorded as “high polyreactivity”.

As to “QVQLVESGGGLVQAGGSLRLSCAASGRTFVIYAMGWYRQAPGKEREFVAAISRSGGSTYYADSVKGRFTISRDNAKNTVYLQMNSLKPEDTAVYYCNTRTPYWFKSDYWGQGTQVTVSS”, the “polyreactivity (PSR sort gate)” value is listed as “low polyreactivity”.

On to “QVQLVESGGGLVQAGGSLRLSCAASGSIFGYYTMGWYRQAPGKERELVARITRGGSTYYADSVKGRFTISRDNAKNTVYLQMNSLKPEDTAVYYCAARRVNAGWTYGLRGNYWGQGTQVTVSS”, for which the “polyreactivity (PSR sort gate)” value was “low polyreactivity”.

For “QVQLVESGGGLVQARGSLRLSCAASGGTFESYAMGWYRQAPGKERELVAAITYSGGSTYYADSVKGRFTISRDNAKNTVYLQMNSLKPEDTAVYYCAARPRFITYKRYYWGQGTQVTVSS”, the “polyreactivity (PSR sort gate)” value was “high polyreactivity”.

Consider “QVQLVESGGGLVQAGGSLRLSCAASGRIFGPYTMGWYRPAPGKEREFVAAISRSGDSTYYADSVKGRFTISRDNAKNTVYLHMNSLKPADTAVYYCAAKYGTRLTAYYYWGQGTQVTVSS”, for which the “polyreactivity (PSR sort gate)” value is given as “high polyreactivity”.

Regarding “QVQLQESGGGLVQASGSPRLSCAASGNIFDADIMGWYRQAPGKQCELVASITDGGSTNYADSEKGRFTISSDNAKNTVYLQKNSLKPEDTAVYYCAAISYRDIPTYFDYDSDYFYWGQGTHVTVSS”, the “polyreactivity (PSR sort gate)” value is “high polyreactivity”.
